We go through 21 sequences from the DeepSol protein solubility set.

A short description of the series: soluble on expression in E. coli; label from the status in PepcDB or PDB records.
Regarding “MEKNRSAFQQNQQASNQPFNQDQNQYYQDPNQQQFNQSGFDPNQQQFNQPGFDPNQQYYQDPNQQQFNQAGFDQNQQYYQDPNQQQFNQPGFDPNQQYYQDPNQQQFNQAGFDQNQYYQDPNQQQFNQSGFDQNQYYQDPNQQQFNQPSFDLNNQQFNQPGFNQSPAFEITPQEQKAEQEMFGEEPPQVVREIHELPFEKIRSFLQSDFDSYNFRLNSLKSKLDNALYSLDKTIQNTNENTANLEAIRHNLEQKIQNQSKQLRTNFDTQKLDDKINELEIRMQKLTRNFESLSELSKHNSYPNYYEKLLPNGGDSMTNVFEKALMMNLLRTTLPPQPQVQYYPQPYPYIRPYYDEPIYAGFRRRGYRDDFYE”, the “soluble on expression in E. coli” value is “soluble”.
With “MICWGEQKRQADPGFFCRKIVEGVSQPIWLVSDTRRTSDIQWFQEAYGAVIQTVRVVASEQSRQQRGWVFTPGVDDAESECGLDNFGNFDWVIENHGDEQCLEDQLEHLLGFIQAKL” the entry was “not soluble”.
“MGSDKIHHHHHHMNILVTGANGFVGQTLCPALERAGLRAVRAVRISTRYEEISVGEVDGETSWSRVFDEGIDGVVHLAAKVPLAEKEKEAADSYHRVNTLGTVRLARECAARGIRRFVFISTVKVLGEECDKPFQADDSAVPSDAYAISKWEAEQSLRQISAETGMEVVILRPPLVYGPGVGGNFLRLLQMVDRRIPLPLGAIHNRRSLIYLGNLVDIIRLCLTHPDAASKTFMVSDGEDVSTPGLIRRIGSVLGHGSFLLPVPAAWMRRVGDLLGKRSAIDRLTGSLSVDSMPVQKELGWLPPYGMQAGLALTVQWYRQHKPETKS”: the “soluble on expression in E. coli” value is “not soluble”.
With “MNYELLTTENAPVKMWTKGVPVEADARQQLINTAKMPFIFKHIAVMPDVHLGKGSTIGSVIPTKGAIIPAAVGVDIGCGMNALRTALTAADLPENLAELRQAIETAVPHGRTTGRCKRDKGAWENPPFNVDAKWAELEAGYQWLTQKYPRFLNTNNYKHLGTLGTGNHFIEICLDESEQVWIMLHSGSRGIGNAIGTYFIDLAQKEMQDQLETLPSRDLAYFMEGTEYFDDYLRAVAWAQLFASLNRDAMMENVVTALQSITQKTVRQPQTLAMEEINCHHNYVQKEQLFGEEIYVTRKGAVSARAGQYGIIPGSMGAKSFIVRGLGNEESFCSCSHGAGRVMSRTKAKKLFSVEDQIRATAHVECRKDAEVIDEIPMAYKDIDAVMAAQSDLVEVIYTLRQVVCVKGLEHHHHHH” the entry was “soluble”; with “MAELYDGPIVDAHHHFWDPQANYHPWLAEDAKIPFRYGDYSAIKRRYLPADYFGDVGAHRVVETVYVETEWDPRDPLGETRFVHHLAERHGAPHAVVAQAWLDAPDAAEVLAAQAGFARVRSVRHKPGGPQRPQQVGELRSLMSDERWRRGYAELARHGLHFDLQTPWWNLAEAACLARDFPDTLIVLNHAGLPSDRSEEGLAAWQRAMARFAECPNVALKISGIGQAGRRWSVEDNAWIVRESIALFGVERAMFASNFPVDSLCGSFDDIYGGFKRIVADLPYADQERLFHSNARRIYRTVPDTVRLQQASPDPRTSP”, “not soluble”.
Consider “MSLKIAIVNDMPMAVEALRRALAFDPSHEVVWVATNGAEAVKYCAELTPDLILMDLIMPVMDGVEATRRIMAESPCAIVIVTVDRQQNVHRVFEAMGHGALDVVDTPALGAGNAQEAAAPLLRKILNIGWLIGQEGHHHHHH”, for which the “soluble on expression in E. coli” value is reported as “not soluble”.
Take “MGSDKIHHHHHHMNKQTEHDTREHLLATGEQLCMQRGFTGMGLSELLKTAQVPKGSFYHYFRSKEAFGVAMLERHYACYHQRLTAHFTSGPGNHRDRLLAWYQETLKQFCQQGAISGCLTVKLSAEVCDLSEDMRSTMDKGAQEIMALLARALEDGRNSHCLHFTGQPLPQAQVLYALWLGANLQAKISRSAAPLENALAHVKTIIATPEQ”: the “soluble on expression in E. coli” value was “not soluble”.
For the sequence “MTTSIWKKLVTAVRGGASEVGESIADANAIRILDQEIRDADNALVKARDGLITIKAKHKLSAQRLEEHATSIANWEGRAMQALNKGEEALAVECASKIAEIEALRDQEQELADQFGKQVSLLQEQVIKAESRIKSLKQQVEMAKARETVQRARVATATATGGASGSVETAVGSLARLKQRQDEQDAKLEAAEELASQSSGSDLERRLQDAGIGAKSGGAQDVLARLKAKNQTPAQLEHHHHHH”, the “soluble on expression in E. coli” value is recorded as “not soluble”.
In the case of “MAKFNVENEHVEVEIEKLYKFSPELVYEAWTKKDLLKQWFMTSARTNKEIEADVKEGGKYRIVDQQRNGKVNVIEGIYESLVMDEYVKMTIGMPGLSETQDVIEVEFFERETGGTQMLFYYRSLVEKERRFTNLEYKQKKKEYHDAMVHGFELMFDKMYHVIETSTQQ”, the “soluble on expression in E. coli” value is reported as “soluble”.
In the case of “MTSSLVLILAPLALVAIGEAAFGNSSKIFEIPGLEVMASDKYPHFTTIETVSRTKVHRHRREVIAGQIYDWNSYEIPFQIWGGDYNFQSLIRRGIRMWEDSTCLRFKENQQSRDAIRYVLEKGDSCFTEYIGRNGGHQDIIIGSECAEEYVVAHETGHALGFWHTHQRPDRDRHISINWKNVMEEATASFMPFRSMLQAFGIRQVSPRRVPYDYGSLMHYHAVAHAVKVSDFTIVPKELKYVTTMGTEKMAFLDAKVINDIYCPNACQGRNHLNCLAGGYPDPNNCNVCRCPEGLGGPDCGRLQPSPCGGEIHASDQWQTLSSPSGRDVHCYWRISVPEGSRVRFRLSDGEFPCSYGCQSYVEIKHKLDVRLTGFRSCCYRPKEDTVSESNQIFVIYHPNGRTARFSLRFRRQA” it was “not soluble”; in that of “MSLKILFASSESYPFIKTGGLGDVSYALPKALRKIGIDARVIIPKYSDIPEYFRYNTHHIASFGVPVGWRSQYGGLEYYEYDGVPFYFIDNDYYFKRSGLYGYYDDGERFAYFSRGVLQAITYMQDFNPDIIQCNDWQTAIIPVLLKDHYRNYRNYNHIKTIFTIHNLKYQGVFGKSVLGELLCLNEGYYNENALKFYDGISFMKGGILFSDKLSTVSRTYAEEIKDPYYGEHLDGLLRSRSYDLWGIVNGIDYDILNPETDKDLFFNFDSSTLYNKTKNKIELQKMLNLPVSENIPMIGIVSRLVSQKGLDLISCVLEDLLQDGIQLVVLGTGDAKYENMFKYFAWKYPNKLSANIQFNNSLAQKIYGASDMFLMPSKFEPCGIGQLIALRYGSLPIVRETGGLKDTVRPFNPITGEGNGFSFTNYNAHDMLHVIRNAEYFYYNEKYNWNKLVQTAMNDDNSWSKSAEIYRNLYMSVLEGHHHHHH”, “not soluble”.
With “MPMRYWLMKSEPDETSIDHLAAEPARLFEWTGVRNYQARNFMRDDMQPGDLLLFWHSSCPEPGIAGIAEVAAAAHADSSQFDPASPYHDPKSDPADPRWLCVDVRFVRKTRLLPPAELRRHPPLEGMTVLKRGNRLSITPVTAEEWAYLMDLLDIRRAGLEHHHHHH” the entry was “soluble”; with “SLRKLRFTRSPYTSARLGQPVDASLLLCNGGRRRFRGQVRDAWPPSARAQPHTHDVDVAAGQRQQVHTALRPVRRGDQRAAMVTARSIGPLGLAGRQSSQSVPGLVRVLPPFLSRKHLPSRLAKLREIDGLLPTLIRGQGTEFDSLREYVVGDDVRSIDWRASARRADVMVRTWRPERDRRVVIVLDTGRMAAGRVGVDPTAADPAGWPRLDWSMDAALLLAALASRAGDHVDFLAHDRISRAGVFGASRSELLAQLVDAMAPLRPALIESDWHAMIATILRRTRRRSLVVLLTDLNATALDEGLLPVLPQLSARHHVLVAAVADPRVDQLAAGRSDAAAVYDAAAAERARNDRRAIASQLRRGGVDVIDAPPAEIAPGLADRYLAMKATGRL”, “not soluble”; with “MSLMLYFITFREARVLLKSRDLALINVDLMKTGKKIRVRVSKDYVEFPDGSRVKKEIIKRIAEDEGNVYFVRDGEVFKAAIAGEHFYKLVPTIPPTIEINGIRMHRTKGTDPLKDTIAKVNTVKPREGEVVLDTCMGLGYTAIESAKRGARVITIEKDPNVIELAKINPWSRELFESPKIKILQGDSFDLIKKFEDESFDVIIHDPPRFSLAGELYSEEFYMEMFRVLKPGGRLFHYVGNPGKRYRGLDLQKGVMERLRRVGFMKVRRVQEALGVFALKPSLEEGHHHHHH”, “not soluble”.
Regarding “MGSDKIHHHHHHMDDRARALLKALIERYIADGQPVGSRTLSKVFDLSPATIRNVMADLEELGLIHSPHTSAGRVPTPRGYRMFVDSLLAVRAYQFEPAHIGELLPVSEPSRAVNAAAALLSNLTQFAGVVLTPKRTQIFRQIEFIRLSDKRVLLIIVTPEGDVQNRILSAQRDYTEAELLEAGNFFNVHFSGKSFDAVRRTLSTELAQLRDDISRLMQAAVEAGAEAADDGEAVVISGERKLLDVTDIASDMDRLRKMFSLFEKKTDLLQLLDVSSRAQGVQIYIGGDSQLVPMEEVSVITAPYGVDGKVIGTLGVIGPTRMAYERVIPIVDITARLLSNALSHNQ”, the “soluble on expression in E. coli” value is “not soluble”.
As to “MNGAELIIQEINKEAERKIEYILNEARQQAEKIKEEARRNAEAKAEWIIRRAKTQAELEKQRIIANARLEVRRKRLAIQEEIISSVLEEVKRRLETMSEDEYFESVKALLKEAIKELNEKKVRVMSNEKTLGLIASRIEEIKSELGDVSIELGETVDTMGGVIVETEDGRIRIDNTFEARMERFEGEIRSTIAKVLFG”, the “soluble on expression in E. coli” value is recorded as “soluble”.
For the sequence “MPSGLFMDLLPFLLDANLSATNPPAIPHWWKRQPLIPNLLSQELKNYLKLNVKEKNIQIADQVIIDETAGEVVIGANTRICHGAVIQGPVVIGANCLIGNWICPYISRHLLSLNPLQARCRRYSRGERLEHHHHHH”, the “soluble on expression in E. coli” value is on record as “not soluble”.
As to “MAGDPMNVNVEDNAKVTLTSQGATKIYKTPSNHVEQYQTFNLKDNAYLEYVADPIIAYENAKFYQHNTFNLNNSSSLFYTDILTPGYSKTGEAFKYQYMHLINEIYIEDELVTYDNLLLNPNKQSINEIGYMEHYSHYGSAYFIHEDVNQKLIDSVYETISSYSNTFDCRVAISQLPTHGFAVRIFAYRTQIIEKILGIIQSYIAENIYDRKLDFLRKYLEHHHHHH”, the “soluble on expression in E. coli” value is given as “not soluble”.
On to “MRLEFSIYRYNPDVDDAPRMQDYTLEADEGRDMMLLDALIQLKEKDPSLSFRRSCREGVCGSDGLNMNGKNGLACITPISALNQPGKKIVIRPLPGLPVIRDLVVDMGQFYAQYEKIKPYLLNNGQNPPAREHLQMPEQREKLDGLYECILCACCSTSCPSFWWNPDKFIGPAGLLAAYRFLIDSRDTETDSRLDGLSDAFSVFRCHSIMNCVSVCPKGLNPTRAIGHIKSMLLQRNA”, for which the “soluble on expression in E. coli” value was “soluble”.
For “MSTITKEWLLKTIAELEEERDATPGAVNEDAAMALAAMKLALASLEAEPVAWLLSGGGAKNNVSFDSGNAYAAQLREVTPLYTAPPAPVSVPAAMEIDDDFDSAFEHGKAVGWNAYRAAMLQAEPVSNSDELPLDYLQGHKDGLEWAAQLAEANHPQTGDWLYDDQIELARAIRKGPDMPTVQGGNSPVIPDGWVMVPVELTPDMRAAWDSAPYTDDDDNDMQAAYRAMIAVAPQWKVK”, the “soluble on expression in E. coli” value was “not soluble”.
“MKKLKVMTVFGTRPEAIKMAPLVLELKKYPEIDSYVTVTAQHRQMLDQVLDAFHIKPDFDLNIMKERQTLAEITSNALVRLDELFKDIKPDIVLVHGDTTTTFAGSLAAFYHQIAVGHVEAGLRTGNKYSPFPEELNRQMTGAIADLHFAPTGQAKDNLLKENKKADSIFVTGNTAIDALNTTVRDGYSHPVLDQVGEDKMILLTAHRRENLGEPMENMFKAIRRIVGEFEDVQVVYPVHLNPVVREAAHKHFGDSDRVHLIEPLEVIDFHNFAAKSHFILTDSGGVQEEAPSLGKPVLVLRDTTERPEGVEAGTLKLAGTDEENIYQLAKQLLTDPDEYKKMSQASNPYGDGEASRRIVEELLFHYGYRKEQPDSFTGKGSHHHHHH”: the “soluble on expression in E. coli” value is given as “soluble”.
